Experimental data published in patent US9199028B2, “Use of entrained neutrophils to treat metastatic and micrometastatic disease in at risk patients” (MEMORIAL SLOAN-KETTERING CANCER CENTER, priority 2010, dated 2015).
“Also recorded” adds a separate entry of the source.

Legend:
neutrophils = assay: In vivo rhG-CSF administration (neutrophil mobilization and lung sequestration); set-up: species or system mouse; conditions: mice
Description: Mice were orthotopically injected with 5×10^6 luciferase labelled 4T1 cells. 24 hours later Apocynin (2.4 g/liter) was administered in sugar sweetened drinking water. Control animals were treated with sugar sweetened water. Drinking water for both Apocynin treated and control mice were replaced every two days. Time-Lapse Microscopy 20,000 4T1 cells were labelled with CellTracker-Red (molecular Probes) according to the manufacturer instructions and plated on a chamber slide. 4 hours later, 400,000 neutrophils, isolated from 4T1 tumour-bearing Balb/c Ube-GFP mice, were added to the culture. Live imaging of Caspase 3 activation was done by labelling the tumour cells with the Caspase 3 substrate NucView 488 (Biotium) prior to the addition of GFP negative TENs. Images were taken every 10 minutes using the MetaMorph imaging system. Neutrophil Transfer Female nude mice were injected with 5×10^4 luciferase labelled 4T1 cells to the tail vein. 4 hours later, the mice were injected with 5×10^6 TENs or G-CSF mobilized neutrophils into the tail vein. Control mice were injected with vehicle. Formation of lung metastases was monitored using the IVIS-200 optical in vivo imaging system. Chemokine Administration rhG-CSF (Neupogen, Amgen) was administered daily (250 microg/kg/day) s.c. for 4 consecutive days. In vitro neutrophil stimulation—neutrophils were isolated from naïve mice and co-cultured with tumour cells in the presence of mCCL2, mCCL5 (both from R&D) or rhG-CSF (all at 20 ng/ml) or with TGF-Beta (R&D) (up to 200 pMolar). Human neutrophils purified from healthy volunteers were stimulated in vitro with hCCL2, hCCL5, hCCL3, hCCL4, hCXCL1, hCXCL12 and hCXCL16 (all from R&D at 100 ng/ml) or with rhG-CSF (20 ng/ml). Statistical Analysis For statistical analysis, the data is presented as mean±SEM and were analyses using Students t tests. Differences were considered significant when p<0.05.
In vivo administration of Apocynin: Mice were orthotopically injected with 5×10^6 luciferase labelled 4T1 cells. […] Formation of lung metastases was monitored using the IVIS-200 optical in vivo imaging system. […]

4T1 cells = assay: In vitro killing assay: naïve mouse neutrophils co-cultured with luciferase labelled 4T1 cells in the presence of chemokines; assay type: cell-based; conditions: naïve mouse neutrophils co-cultured with 4T1 cells, chemokine 20 ng/ml, overnight
Excerpt: Antibodies used for immunohistochemistry—MMP9, F4/80 and CCR2 (all from AbCam), Myeloperoxidase (Dako), Ly-6G and Cd11b (both from BD), and Cleaved Caspase 3 (Cell signalling). Antibodies used for western blotting—Actin (Sigma), CCL2 (AbCam) and CCL5 (R&D) p-SMAD2 (cell signalling). Antibodies used for FACS analysis FITC-Ly-6G, FITC-Cd11b, FITC-F4/80, FITC-Cd34 and FITC-c-Kit (all from BD) and VEGFR1-AP (R&D). Neutrophil Depletion Neutrophil depletion was achieved using daily IP injections of 12.5 μg Rat anti-Gr-1 antibody (BD) or Rat anti-Ly-6G antibody (BD) starting on day 3 post tumour engraftment. Starting on day 14, neutrophil depleting antibodies were administered twice daily. Control mice were injected with […] Rat isotype control (BD). Neutrophil depletion was monitored by manual blood differentials and FACS analysis. Flow Cytometry Peripheral blood was collected into EDTA-coated tubes, washed and resuspended in FACS buffer solution (PBS, 2% heat-inactivated FCS, 5 mM EDTA, and 0.02% sodium azide). The samples were blocked with […] and then incubated with fluorophore-conjugated antibodies. Erythrocytes were then lysed with FACS lysing solution (BD Biosciences) and the cell suspensions were analyzed on a FACSCalibur (BD Biosciences). Colony Formation Assay Female nude mice were orthotopically injected with 5×10^6 puromicin resistant 4T1 cells. On days 7 and 14 post tumour engraftment the mice were sacrificed and perfused with PBS. The lungs and livers were removed, washed with PBS and dissociated with Collagenase A (Roche). The single cell suspension was then plated onto puromicin containing media and selected for 14 day. Colonies were stained with Methylene-Blue and counted manually. Mouse Neutrophil Purification Whole blood was collected by cardiac puncture using heparinized (Sigma) syringe. The blood was diluted with 5 volumes of PBS containing 0.5% BSA and subjected to a discontinuous Histopaque (Sigma) gradient (1.077 and 1.119). Neutrophils were collected from the 1.077-1.119 interface, lymphocytes and monocytes collected from the plasma-1.077 interface. RBCs were eliminated by hypotonic lysis. The cells were washed twice with PBS-BSA and re-suspended in OptiMEM (Invitrogen) 0.5% FBS in a final concentration of 2×10^6 cells/ml. Neutrophil purity and viability were determined visually and were consistently >98%. Human Neutrophil Purification As part of a Memorial Sloan-Kettering Cancer Center institutionally approved protocol, blood samples (˜10 cc) were collected from healthy volunteers or from patients who were already having blood drawn for pre-surgical testing. Patients were consented accordingly as part of the approved protocol. […] Patients had either mastectomies or lumpectomies planned and had blood drawn prior to definitive surgical removal of their primary tumor or chemotherapy. Blood samples were transferred to the lab for analysis no more than 1 hour post-blood draw. Heparinzed blood (20 U/ml final) was mixed with an equal volume of Dextran 500 (3% in saline) and incubated 30 minutes at room temperature. The leukocyte-rich supernatant was layered on top of histopaque 1077 (Sigma) and centrifuged. Neutrophils, collected in the pellet fraction, were resuspended in 10 ml 0.2% NaCl for 30 seconds to remove contaminating erythrocytes. Isotonicity was restored by the addition of 10 ml 1.6% NaCl. Neutrophils were than washed three times in Hanks's balanced salt solution and resuspended in RPMI+FCS2%. In vitro Killing Assay Luciferase labelled cells (5,000/well) were plated on a 96-well, flat bottom white polystyrene tissue culture plate in OptiMEM 0.5% FBS (mouse neutrophils) or RPMI 2% FBS (human neutrophils). 4 hours later, purified neutrophils (100,000/well for mouse neutrophils and 5000 for human neutrophils) were added to the plated tumour cells and co-cultured overnight. […]

B1: rhG-CSF: recombinant methionyl human granulocyte colony-stimulating factor (Neupogen, Amgen) (protein, chains of the INN, looked up)
chain: MTPLGPASSLPQSFLLKCLEQVRKIQGDGAALQEKLCATYKLCHPEELVLLGHSLGIPWAPLSSCPSQALQLAGCLSQLHSGLFLYQGLLQALEGISPELGPTLDTLQLDVADFATTIWQQMEELGMAPALQPTQGAMPAFASAFQRRAGGVLVASHLQSFLEVSYRVLRHLAQP
modifications: N-terminal methionine
circulating neutrophils after rhG-CSF administration (neutrophils; 250 μg/kg/day s.c.): significant increase in circulating and lung-associated neutrophils; also recorded: significant increase in circulating and lung-associated neutrophil numbers | increase of circulating neutrophil numbers (neutrophils; 250 ug/kg/day s.c. for 4 consecutive days): 2-4 fold | lung-associated neutrophils (Ly-6G or myeloperoxidase immunohistochemistry) (neutrophils; rhG-CSF administration): increase in lung-associated neutrophils | neutrophil mediated killing of 4T1 cells (tumor cell viability by luciferase activity) (4T1 cells): does not induce neutrophil mediated cell killing; also recorded: does not induce a cytotoxic neutrophil response; also recorded: did not induce a cytotoxic neutrophil response in vitro | neutrophil mediated killing of 4T1 cells (tumor cell viability by luciferase activity) (4T1 cells; listed as G-CSF): no significant effect on tumor-cell viability
